Test results: patent EP4617282A1 (Institute Of Pathogen Biology, Chinese Academy Of Medical …, dated 2024)

How the values were obtained:
[1] = target: HIV-1JRFL Env (envelope glycoprotein of the HIV-1JRFL pseudovirus) (HIV-1 (strain JRFL)); assay: cell-based or functional assay
[2] = target: HIV-1NL4-3 Env (envelope glycoprotein of the HIV-1NL4-3 pseudovirus) (HIV-1 (strain NL4-3)); assay: cell-based or functional assay

Binder: Ac-YEQKIEELLKKAEEQQKKNEEELKKLEK-NH2 (not fully specified (residue 28)) [lipopeptide LP-98]
- average IC50, inhibition of pseudovirus infection of TZM-bl cells (luciferase) [1]: 2.58 pM
- average IC50, inhibition of pseudovirus infection of TZM-bl cells (luciferase) [2]: 1.07 pM

Binder: Ac-EIEELEKKIEELLKKAEEQQKKNEEELKKLEK-NH2 (not fully specified (residue 32)) [lipopeptide LP-101]
- average IC50, inhibition of pseudovirus infection of TZM-bl cells (luciferase) [1]: 2.26 pM
- average IC50, inhibition of pseudovirus infection of TZM-bl cells (luciferase) [2]: 0.46 pM

Binder: Ac-WEEWEKKIEELEKKIEELLKKAEEQQKKNEEELKKLEK-NH2 (not fully specified (residue 38)) [lipopeptide LP-104]
- IC50, inhibition of pseudovirus infection of TZM-bl cells (luciferase) [1]: 60.2 pM
- fold reduction of antiviral activity as compared to lipopeptide LP-101 [1]: ~27 fold
- IC50, inhibition of pseudovirus infection of TZM-bl cells (luciferase) [2]: 14.5 pM
- fold reduction of antiviral activity as compared to lipopeptide LP-101 [2]: ~32 fold
